# Patent US10865390B2, “Alcohol dehydrogenase mutant and application thereof in synthesis of diaryl chiral alcohols” (Jiangnan University, priority 2018, dated 2020)
# Substitutions are numbered along the chain they refer to. In names and notes the source's numbering stands.
# B1: M2: alcohol dehydrogenase mutant: valine for glutamic acid at position 214 (E214V) of SEQ ID No. 2 (protein)
# chain: MSVLISGASGYIAKHIVRVLLEQNYKVIGTVRSQDKADKLLKQYNNPNLSYEIVPEIANLDAFDDIFKKHGKEIKYVIHAASPVNFGAKDLEKDLVIPAINGTKNMFEAIKKYAPDTVERVVMTASYASIMTPHRQNDPTLTLDEETWNPVTEENAYENVFTAYCASKTFAEKEAWKFVKENSDAVKFKLTTIHPSFVFGPQNFDEDVTKKLNVTCEIINGLLHAPFDTKVEKTHFSQFIDVRDVAKTHVLGFQKDELINQRLLLCNGAFSQQDIVNVFNEDFPELKGQFPPEDKDTDLNKGVTGCKIDNEKTKKLLAFEFTPFHKTIHDTVYQILHKEGRV
# modifications: Protein translated from synthetic DNA
# B2: M1: alcohol dehydrogenase mutant: glycine for glutamic acid at position 214 (E214G) of SEQ ID No. 2 (protein)
# chain: B1 chain with V214G
# modifications: Protein translated from synthetic DNA
# B3: M7: alcohol dehydrogenase mutant E214V, T215S of SEQ ID No. 2 (protein)
# chain: B1 chain with T215S
# modifications: Protein translated from synthetic DNA
# B4: M4: alcohol dehydrogenase mutant E214G, S237C, Q136N of SEQ ID No. 2 (protein)
# chain: B1 chain with Q136N, V214G, S237C
# modifications: Protein translated from synthetic DNA
# B5: M3: alcohol dehydrogenase mutant E214G, S237C of SEQ ID No. 2 (protein)
# chain: B1 chain with V214G, S237C
# modifications: Protein translated from synthetic DNA
# B6: M5: alcohol dehydrogenase mutant E214G, S237C, Q136N, S196G of SEQ ID No. 2 (protein)
# chain: B1 chain with Q136N, S196G, V214G, S237C
# modifications: Protein translated from synthetic DNA
# What was measured:
# Type in all cases: biochemical
# [1] = Stereoselectivity analysis of CPMK reduction (chiral liquid chromatography, Table 1); conditions: product CPMA from CPMK
# Experimental: (§1) In an embodiment of the present disclosure, the (R)- and (S)-CPMA is chromatographed by taking 100 μL reaction solution, adding 500 μL ethyl acetate, shaking for 1-2 min, centrifuging at 12,000 rpm for 2-5 min, placing a supernatant into a centrifuge tube, and after an organic phase is naturally volatilized completely, adding 500 μL chromatographic pure ethanol for chiral liquid chromatography of a conversion rate and an ee value. The specific chromatographic conditions are as follows: Daicel Chiralcel OB-H (5 μm, 250 mm×4.6 mm) liquid chromatography column, mobile phases are n-hexane: ethanol: ethanolamine (90:10:0.01, v/v/v), the flow rate is 1 mL/min, the column temperature is 30° C., the UV detection wavelength is 254 nm, the injection volume is 10 μL, and the retention time for (R)-CPMA and that for (S)-CPMA are 11.14 min and 12.34 min respectively.
# Method for determining optical purity ee:
# As: molar concentration of (S)-CPMA obtained by liquid chromatography; and AR: molar concentration of (R)-CPMA obtained by liquid chromatography.
# The activity of KpADH at different substrate concentrations and coenzyme concentrations was determined, and a double reciprocal curve was made based on the reciprocal of activity and substrate concentration to calculate kinetic parameters.
# [2] = Substrate specificity: reduction of prochiral carbonyl compound (Table 2)
# Source text: The reduction on prochiral carbonyl compounds by the alcohol dehydrogenase mutants obtained in Example 2 was studied, and the studied prochiral carbonyl compounds include (4-chlorophenyl)-(pyridin-2-yl)-methanone (CPMK), phenyl-(pyridin-2-yl)-methanone, (4-chlorophenyl)-(phenyl)-methanone, (4-bromophenyl)-(phenyl)-methanone, (4-fluorophenyl)-(pyridin-2-yl)-methanone, (4-methoxyphenyl)-(phenyl)-methanone, acetophenone, 4-chloroacetophenone and 2-(4-chlorophenyl)acetyl chloride.
# [3] = 20 mL biocatalytic system: asymmetric reduction of CPMK
# Experimental: as §1
# A 20 mL biocatalytic system was established: 100 mM potassium phosphate buffer (pH 7.0), and the alcohol dehydrogenase mutants M6 and M7 obtained in Example 2 as well as wild KpADH 10 g/L, CPMK 100 mM, 200 mM and 500 mM were added (substrate added in batches). […]
molecule,measurement,setting,value
B1,ee,[1],92.3%
same,ee value of product,[2]; substrate drawing 1 (CPMK),92.3%
same,ee value of product,[2]; substrate drawing 2,30.6%
same,ee value of product,[2]; substrate drawing 3,87.9%
same,ee value of product,[2]; substrate drawing 4,95.5%
same,ee value of product,[2]; substrate drawing 5,0.56%
same,ee value of product,[2]; substrate drawing 6,23.2%
same,ee value of product,[2]; substrate drawing 7,45.3%
same,ee value of product,[2]; substrate drawing 8,94.9%
same,ee value of product,[2]; substrate drawing 9,91.2%
B2,ee,[1],3.29%
same,ee value of product,[2]; substrate drawing 1 (CPMK),24.2%
same,ee value of product,[2]; substrate drawing 2,41.0%
same,ee value of product,[2]; substrate drawing 3,63.2%
same,ee value of product,[2]; substrate drawing 4,49.3%
same,ee value of product,[2]; substrate drawing 5,7.51%
same,ee value of product,[2]; substrate drawing 6,42.7%
same,ee value of product,[2]; substrate drawing 7,68.5%
same,ee value of product,[2]; substrate drawing 8,86.3%
same,ee value of product,[2]; substrate drawing 9,94.5%
B3,ee value of final reduction product,"[3]; 20 mL biocatalytic system, enzyme 10 g/L, 30° C., pH 7.5",99.7%
same,Conversion rate,"[3]; CPMK 100 mM, reaction time 1 h",34.0%
same,Conversion rate,"[3]; CPMK 100 mM, reaction time 2 h",40.8%
same,Conversion rate,"[3]; CPMK 100 mM, reaction time 3 h",41.5%
same,Conversion rate,"[3]; CPMK 100 mM, reaction time 4 h",46.5%
same,Conversion rate,"[3]; CPMK 100 mM, reaction time 6 h",58.7%
same,Conversion rate,"[3]; CPMK 100 mM, reaction time 8 h",69.0%
same,Conversion rate,"[3]; CPMK 100 mM, reaction time 12 h",99.7%
same,Conversion rate,"[3]; CPMK 100 mM, reaction time 24 h",99.7%
same,Conversion rate,"[3]; CPMK 200 mM, reaction time 1 h",20.9%
same,Conversion rate,"[3]; CPMK 200 mM, reaction time 2 h",33.1%
same,Conversion rate,"[3]; CPMK 200 mM, reaction time 3 h",48.1%
same,Conversion rate,"[3]; CPMK 200 mM, reaction time 4 h",55.2%
same,Conversion rate,"[3]; CPMK 200 mM, reaction time 6 h",77.4%
same,Conversion rate,"[3]; CPMK 200 mM, reaction time 8 h",86.3%
same,Conversion rate,"[3]; CPMK 200 mM, reaction time 12 h",92.2%
same,Conversion rate,"[3]; CPMK 200 mM, reaction time 24 h",99.7%
same,Conversion rate,"[3]; CPMK 500 mM, reaction time 1 h",10.8%
same,Conversion rate,"[3]; CPMK 500 mM, reaction time 2 h",21.1%
same,Conversion rate,"[3]; CPMK 500 mM, reaction time 3 h",38.7%
same,Conversion rate,"[3]; CPMK 500 mM, reaction time 4 h",43.2%
same,Conversion rate,"[3]; CPMK 500 mM, reaction time 6 h",62.1%
same,Conversion rate,"[3]; CPMK 500 mM, reaction time 8 h",70.7%
same,Conversion rate,"[3]; CPMK 500 mM, reaction time 12 h",89.9%
same,Conversion rate,"[3]; CPMK 500 mM, reaction time 24 h",99.4%
same,time required to achieve a conversion rate close to 99.9%,[3]; CPMK concentration 200 mM,24 h
same,ee value of product,[2]; substrate drawing 2,11.9%
same,ee value of product,[2]; substrate drawing 3,99.4%
same,ee value of product,[2]; substrate drawing 5,9.22%
same,ee value of product,[2]; substrate drawing 6,45.7%
same,ee value of product,[2]; substrate drawing 7,51.3%
same,ee value of product,[2]; substrate drawing 8,95.1%
same,ee value of product,[2]; substrate drawing 9,77.5%
B4,ee,[1],88.0%
same,ee value of product,[2]; substrate drawing 1 (CPMK),80.6%
same,ee value of product,[2]; substrate drawing 2,20.7%
same,ee value of product,[2]; substrate drawing 3,38.6%
same,ee value of product,[2]; substrate drawing 4,66.5%
same,ee value of product,[2]; substrate drawing 5,49.1%
same,ee value of product,[2]; substrate drawing 6,82.6%
same,ee value of product,[2]; substrate drawing 7,91.5%
same,ee value of product,[2]; substrate drawing 8,57.7%
same,ee value of product,[2]; substrate drawing 9,99.3%
B5,ee,[1],51.8%
same,ee value of product,[2]; substrate drawing 1 (CPMK),65.4%
same,ee value of product,[2]; substrate drawing 2,36.5%
same,ee value of product,[2]; substrate drawing 3,33.2%
same,ee value of product,[2]; substrate drawing 4,63.3%
same,ee value of product,[2]; substrate drawing 5,45.6%
same,ee value of product,[2]; substrate drawing 6,80.6%
same,ee value of product,[2]; substrate drawing 7,95.3%
same,ee value of product,[2]; substrate drawing 8,88.9%
same,ee value of product,[2]; substrate drawing 9,99.8%
B6,ee,[1],93.5%
same,ee value of product,[2]; substrate drawing 1 (CPMK),87.7%
same,ee value of product,[2]; substrate drawing 2,15.5%
same,ee value of product,[2]; substrate drawing 3,62.0%
same,ee value of product,[2]; substrate drawing 4,70.9%
same,ee value of product,[2]; substrate drawing 5,59.5%
same,ee value of product,[2]; substrate drawing 6,81.7%
same,ee value of product,[2]; substrate drawing 7,95.6%
same,ee value of product,[2]; substrate drawing 8,49.1%
same,ee value of product,[2]; substrate drawing 9,99.9%
